The subject of one assay is zELKΔ740–742 channels. The class given is cell-based, Danio rerio. The settings on record: inside-out patches, X. laevis oocytes, with or without MgATP.
In assay [1] the target is mEAG1 intrinsic-ligand peptide (mEAG1#696–702), fluorescein-labeled (mouse). As to the kind of experiment: fluorescence polarisation. Background: Polarisation of emitted light reports the rotation of a fluorescent probe.
The target of assay [2] is hERG1 intrinsic-ligand peptide (hERG1#857–863), fluorescein-labeled (human) (UniProt Q12809). The assay can be described thus: fluorescence polarisation.
Sequence of UniProt Q12809 (Q12809 whole entry, looked up, tested part not stated): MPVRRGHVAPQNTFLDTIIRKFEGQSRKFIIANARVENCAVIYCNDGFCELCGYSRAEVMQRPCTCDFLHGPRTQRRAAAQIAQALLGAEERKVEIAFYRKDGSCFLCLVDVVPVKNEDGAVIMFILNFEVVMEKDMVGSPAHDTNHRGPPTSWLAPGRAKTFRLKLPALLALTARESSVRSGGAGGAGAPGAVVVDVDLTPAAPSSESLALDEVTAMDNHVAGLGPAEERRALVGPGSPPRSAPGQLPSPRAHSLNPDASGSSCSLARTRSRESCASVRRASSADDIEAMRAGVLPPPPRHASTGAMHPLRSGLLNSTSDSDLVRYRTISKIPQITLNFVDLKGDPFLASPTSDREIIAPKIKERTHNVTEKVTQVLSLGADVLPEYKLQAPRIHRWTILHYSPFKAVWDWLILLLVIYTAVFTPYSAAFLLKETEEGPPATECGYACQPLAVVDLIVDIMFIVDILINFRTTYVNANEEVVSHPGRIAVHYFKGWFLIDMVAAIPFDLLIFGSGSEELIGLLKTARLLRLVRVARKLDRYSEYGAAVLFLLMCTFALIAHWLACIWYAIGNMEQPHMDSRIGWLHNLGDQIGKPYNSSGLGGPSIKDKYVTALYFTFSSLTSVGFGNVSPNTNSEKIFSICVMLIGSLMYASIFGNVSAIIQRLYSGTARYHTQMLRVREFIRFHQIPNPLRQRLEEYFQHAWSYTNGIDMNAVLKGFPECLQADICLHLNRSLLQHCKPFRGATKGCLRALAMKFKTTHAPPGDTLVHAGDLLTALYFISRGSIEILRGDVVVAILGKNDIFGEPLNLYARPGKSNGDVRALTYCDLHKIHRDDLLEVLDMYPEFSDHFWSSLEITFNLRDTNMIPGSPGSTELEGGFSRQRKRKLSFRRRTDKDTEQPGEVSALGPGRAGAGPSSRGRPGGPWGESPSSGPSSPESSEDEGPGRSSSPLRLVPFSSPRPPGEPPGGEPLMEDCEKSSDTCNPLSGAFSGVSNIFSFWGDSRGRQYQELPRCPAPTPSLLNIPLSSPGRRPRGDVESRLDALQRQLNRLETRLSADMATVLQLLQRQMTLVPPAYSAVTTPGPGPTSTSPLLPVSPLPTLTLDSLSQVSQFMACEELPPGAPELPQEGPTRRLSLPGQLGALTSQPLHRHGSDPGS

Where no end group is shown, it is not given here.

As for “hERG1 peptide: intrinsic-ligand peptide from hERG1 channels (#857–863) (EITFNLR; also: fluorescein label, position not given here)”, the “modulation of zELKΔ740–742 channels regardless of MgATP” value with zELKΔ740–742 channels was “did not produce an appreciable amount of modulation”. As to “MBP–C-linker/CNBHD of zELK channel (Q543–L750), wild type (domain or fragment)”, in assay [1], the Kd (as a rule, the free concentration of one partner at which half of the binding sites on the other are occupied at equilibrium, for simple one-to-one binding) is 85 µM. Regarding “MBP–C-linker/CNBHDΔ740–742 of zELK channel (Q543–L750 without Y740–L742) (domain or fragment)”, the results for the Kd in assay [2] and in assay [1] were 90 µM and 37 µM, respectively.
